# Experimental data: patent US20240002499A1, “ANTI-CLIC1 PROTEIN ANTIBODIES AND THE DIAGNOSTIC AND THERAPEUTIC USES THEREOF” (Universita' Degli Studi di Milano, priority 2020, published 2024)
# “Also recorded” adds a separate entry of the source.
# Columns and labels:
# mouse glioblastoma cells = assay: Glioblastoma cell growth curves, polyclonal antibody versus tmCLIC1omab; assay type: cell-based; settings: exposing cells for 96 hours
# Protocol: The cells were seeded in 24-well plates (20,000 cells/well) and counted after 24, 48, 72 and 96 hours to construct the growth curve. The cells were collected and centrifuged, and the resuspended pellet was diluted 1:1 with Trypan Blue. An automated counter (Countess II, Thermo Fisher Scientific) was used to count the cells. All data were normalized to their controls.
# The cells were plated in 24-well multiwell plates at a density of 10,000 cells/cm 2. The number of live and dead cells for each sample was counted after 72 hours with an automated counter (Countess II, Thermo Fisher Scientific), following the same process as used for the growth curves. All data were standardised to the corresponding controls.
# tmCLIC1 ion channel [1] = target: T1, tmCLIC1 ion channel (Mus musculus, UniProt Q9Z1Q5); assay: Whole-cell patch clamp on BV2 microglial cells with β-amyloid; assay type: cell-based, mice; settings: whole-cell configuration, perfusion of antibody after β-amyloid
# T1 construct: endogenous in cells; host or cells: BV-2 mouse microglial cell line
# Excerpt: The microglial cells used (BV-2) originated from an immortalised cell line deriving from C57BL/6 mice and commonly marketed. The culture medium used was RPMI (Thermo Fisher Scientific) with the addition of 10% FBS (Euroclone) and 1% Pen/Strep ([…], Thermo Fisher Scientific).
# (§1) The microelectrodes were obtained from borosilicate capillaries with a diameter of 1.5 mm. Micropipettes were produced with a P-97 Brown-Flaming puller (Sutter Instruments, Novato, CA), with which the capillaries were forged to a tip diameter of 1-1.5 μm and electrical resistance of 5-8 MΩ.
# (§2) The perforated patch clamp configuration was used for the whole-cell experiments, employing the antibiotic gramicidin (final concentration in pipette 5 μg/ml) which forms pores in the membrane that are only permeable to monovalent cations; in this way, the cytoplasmic concentration of the chloride ion remains unchanged throughout the experiment. The ion currents were digitised at 5 kHz and filtered at 1 kHz. Clampex 9.2 was used as the data acquisition and analysis programme.
# In the time-course experiments, the potential was set on the basis of the resting potential of each cell, and a voltage step of +60 mV was applied every 5 seconds. The current measured is that observed at the end of the voltage step lasting 800 ms. When the amplitude of the current reaches a constant value, the antibody and IAA94 are added in sequence. […]
# tmCLIC1 = target: T2, tmCLIC1 (Mus musculus, UniProt Q9Z1Q5); assay: Immunofluorescence on live microglial cells; assay type: cell-based, mice; settings: live microglial cells before and after stimulation with β-amyloid
# T2 construct: endogenous in cells; host or cells: BV-2 mouse microglial cell line
# Protocol: The migration of the protein to the plasma membrane gives rise to insertion of CLIC1 as transmembrane protein. The tmCLIC1omab antibody was used on live cells to specifically identify tmCLIC1. […] In live cells, the tmCLIC1omab antibody was used before (B) and after (C) stimulation with β-amyloid.
# Immunofluorescence analyses were conducted to evaluate the specificity of the antibody in binding the transmembrane portion of the CLIC1 protein in WT and Clic1^−/− cells. The cells (5×10^4 cells/well) were plated on slides (ϕ12 mm). The cells were kept viable throughout the initial processes. The cells were washed three times with PBS Ca^2+/Mg^2+, and incubated for 45 minutes at room temperature in blocking solution (5% BSA in PBS). Subsequently, after removal of the blocking solution, the solution containing the antibody (3.5 μg/ml in PBS/BSA 5×) was added, and incubated for 1 h at room temperature. After three washes with PBS Ca^2+/Mg^2+, the cells were fixed with paraformaldehyde (PFA 2%) for 5 minutes at room temperature. After being washed three times with PBS Ca^2+/Mg^2+, the cells were incubated with secondary antibody Alexa Fluor 488 (Thermo Fischer Scientific) for 2 h at room temperature in the dark. […] The slides were observed through a Zeiss Examiner A1 fluorescence microscope with a Zeiss 40×/0.75 NA water immersion lens.
# CLIC1 = target: T3, CLIC1 (Homo sapiens, UniProt O00299); assay: Whole-cell patch clamp on HEK cells transfected with CLIC1 plasmid; assay type: cell-based; settings: HEK cells overexpressing CLIC1; voltage steps from −60 to +80 mV; IAA94 50 μM
# T3 construct: expressed in transfected cells; host or cells: HEK cells
# Protocol: FIG. 17. Current/voltage relationship of CLIC1 membrane current in whole-cell patch clamp experiments. HEK cells were transfected with CLIC1 plasmid to overexpress the CLIC1 protein. After recording control current (filled cycles; n=5) cells were perfused alternatively with the polyclonal antibody (open triangles; n=7), tmCLIComab (inverse open triangles; n=10) and with 50 μM IAA94 (filled squared; n=11). The whole cells current is expressed as a current density.
# The reference sequence of the CLIC1 protein used in the experiments described in the present patent application is filed at UniProt under number UniProtKB—000299 (CLIC1 human), and described in the article Harrop S. J. et al., “Crystal structure of a soluble form of the intracellular chloride ion channel CLIC1 (NCC27) at 1.4-Å Resolution”; The Journal of Biological Chemistry, Vol. 276 No. 48, November 30, pp. 44993-45000 (2001).
# The potential was set on the basis of the resting potential of each cell (between 0 and −80 mV). The CLIC1-mediated chlorine currents were isolated from other ion currents by mathematical subtraction of the residual current following perfusion of 100 μM IAA94 dissolved in the external solution.
# human glioblastoma cells = assay: Glioblastoma cells pre-treated with antibody, inoculated into the brain of immunodepressed mice, magnetic resonance scan; assay type: in vivo; settings: cells incubated 72 hours with antibody before inoculation; scan two months after inoculation
# Protocol: In the in vivo experiments, human glioblastoma cells were incubated for 72 hours with tmCLIC1omab antibody before being inoculated into the brain of immunodepressed mice.
# Patient-derived neurospheres were mechanically dissociated, resuspended in […], and injected into the caudate nucleus (1 mm posterior, 3 mm left lateral, 3.5 mm deep relative to bregma) of 5-week-old female CD1 nu/nu mice (Charles River, Wilmington, MA). The cells were incubated with the antibody or the control isotype for 72 hours before implantation (10^5 cells) into the brain of immunodeficient mice. The experiments were conducted pursuant to Italian law (Order of the Executive 116/92, as amended), which transposes EU Directive 86/609 (Council Directive 86/609/EEC of 24 Nov. 1986 on the approximation of laws, regulations and administrative provisions of the Member States regarding the protection of animals used for experimental and other scientific purposes).
# tmCLIC1 ion channel [2] = target: T4, tmCLIC1 ion channel (Homo sapiens, UniProt O00299); assay: Patch clamp of CLIC1-mediated chloride current in primary human tumour cultures; assay type: cell-based; settings: perforated patch clamp; glioblastoma, colorectal and prostate primary human tumour cultures; perfusion of antibody
# T4 construct: endogenous in cells; host or cells: primary human glioblastoma, colorectal cancer and prostate cancer cells
# Protocol: as §1, §2
# In the time-course experiments, the potential was set on the basis of the resting potential of each cell, and a voltage step of +60 mV was applied every 5 seconds. The current measured is that observed at the end of the voltage step lasting 800 ms. When the amplitude of the current reaches a constant value, the antibody and IAA94 are added in sequence.
# For the current-voltage graph, the voltage step protocol used to isolate the currents consisted of voltage variations ranging from −60 mV to +60 mV, with progressive increments of 20 mV lasting 800 ms. […]
molecule,measurement,setting,value
"tmCLIC1omab: IgG1 class antibody containing the heavy chain variable region SEQ ID NO:13 and the light chain variable region SEQ ID NO:14 (antibody, listed as Mus musculus, V domains shown) VH: EVMLVESGGGLVKPGGSLKLSCAASGFAFSNYAMSWIRQIPEKRLEWVATISTGGSSTFYPDSVKGRFTISRDNAKNTLYLQMSSLRSEDTAMYYCTRHAYEAWFAYWGQGTLVTVSA VL: QIVLTQSPALMSASPGEKVTMTCSASSSVSYMYWYQQRPRSSPKPWIYLTSTLASGVPTRFSGSGSGTSYSLTISSMEAEDAATYYCQQWNSHPLTFGSGTKLEIK",percentage of cell death,mouse glioblastoma cells,15%
same,reduction of membrane current increased by β-amyloid peptide,tmCLIC1 ion channel [1],about fourfold
same,recognition of tmCLIC1 on live cells,tmCLIC1,only reacts from the exterior
same,inhibition of CLIC1 ionic whole-cell current,CLIC1,matched only by tmCLIC1omab
same,tumour mass on magnetic resonance scan,human glioblastoma cells,much smaller mass
same,CLIC1-mediated chloride current (current density/voltage),tmCLIC1 ion channel [2],almost totally eliminated; also recorded: depressed and almost eliminated the membrane current
